Measured values reported in PMC9741652, “CRL2^ZER1/ZYG11B recognizes small N-terminal residues for degradation” (Nature Communications, 2022).

T1: SFLHVGQD peptide
T1 chain: SFLHVGQD


Assays:
[1] = molecular target: ZYG11B (residues 490–728), Q9C0D3; test: ITC; conditions: chain shown with the change;; parent: 2.5 µM
SFLHVGQD peptide = molecular target: T1, SFLHVGQD peptide; test: ITC; conditions: chain shown with the change;; parent: 1.3

ZYG11B (residues 490–728), Q9C0D3, sequence (Q9C0D3 other isoform, or with tags, fused parts or gaps): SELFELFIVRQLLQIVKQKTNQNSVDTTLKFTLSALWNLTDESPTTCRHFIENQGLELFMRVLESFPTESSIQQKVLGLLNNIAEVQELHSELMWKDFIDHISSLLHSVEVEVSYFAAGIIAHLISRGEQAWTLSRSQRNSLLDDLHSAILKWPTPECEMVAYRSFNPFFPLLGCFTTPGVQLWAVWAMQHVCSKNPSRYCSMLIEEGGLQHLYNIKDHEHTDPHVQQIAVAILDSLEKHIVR

Kd [1] [µM]	Kd (SFLHVGQD peptide) [µM]	Binder
> 100		VFLHVGQD [GFLHVGQD peptide G1V]
	> 100	ZER1 (residues 469–766), Q7Z7L7 D556A (protein) MEELEELEFQYRRVNELLLSILNPTRQDESIQRIAVHLCNALVCQVDNDHKEAVGKMGFVVTMLKLIQKKLLDKTCDQVMEFSWSALWNITAETPDNCEMFLNFNGMKLFLDCLKEFPEKQELHRNMLGLLGNVAEVKELRPQLMTSQFISVFSNLLESKADGIEVSYNACGVLSHIMFDGPEAWGVCEPQREEVEERMWAAIQSWDINSRRNINYRSFEPILRLLPQGISPVSQHWATWALYNLVSVYPDKYCPLLIKEGGMPLLRDIIKMATARQETKEMARKVIEHCSNFKEENMDTSR
	> 100	ZER1 (residues 469–766), Q7Z7L7 E600A (protein) MEELEELEFQYRRVNELLLSILNPTRQDESIQRIAVHLCNALVCQVDNDHKEAVGKMGFVVTMLKLIQKKLLDKTCDQVMEFSWSALWNITDETPDNCEMFLNFNGMKLFLDCLKEFPEKQELHRNMLGLLGNVAAVKELRPQLMTSQFISVFSNLLESKADGIEVSYNACGVLSHIMFDGPEAWGVCEPQREEVEERMWAAIQSWDINSRRNINYRSFEPILRLLPQGISPVSQHWATWALYNLVSVYPDKYCPLLIKEGGMPLLRDIIKMATARQETKEMARKVIEHCSNFKEENMDTSR
